Laboratory results from publication PMC6522554.

Target: BF520.M6.I1 Env (HIV-1 (clade A, infant BF520))

B1: BF520.1 mature mAb (IgG) (antibody, V domains shown)
VH: QVQLVQSGAEMKMPGASVKVSCKASGYTFTGNYIHWVRQAPGQGLEWMGWIAPHSGDTSYAQRFQGRVTMTGDTSLSTAYMELSRLRSDDTAVYYCARGPFPNYYGPGSYWGGLDFWGQGTLVSVSS
VL: EIVMTQSPATLSVSLGERATLSCRTSQNVAYNFAWYQQKPGQAPRLLIYEASSRATGTPARFSGSGFGTEFTLTISSMQSEDFAVYYCQQYNNWPSPFTFGPGTKVHIK
- potency (IC50) of neutralization of the autologous pseudovirus BF520.M6.I1: 1.1 μg ml^−1
